The target in assay [1] is neonatal Fc receptor (FcRn) on FcRn Affinity Column Gen2 (Roche, Cat #09430857001) (UniProt P55899). The experiment in a line: FcRn-HPLC (Roche FcRn Affinity Column Gen2), peak width at 50% peak height.
The target is the same in assay [2]. Put plainly: FcRn-HPLC (Roche FcRn Affinity Column Gen2), pH gradient 5.5 to 8.8 over 90 minutes.
Assay [3] has as its target Mutant human LEPR-A409E, on HEK293 STAT3-Luciferase reporter cells (human) (UniProt P48357). Put plainly: cell-based or functional assay.
Assay [4] addresses human LEPR, full length, on HEK293-STAT3Luc-hLepR1 cells (Homo sapiens) (UniProt P48357). Put plainly: cell-based or functional assay.
Assay [5] concerns the target human FcγRI (CD64) extracellular domain (human) (UniProt P12314). Put plainly: SPR at 25 C (Biacore T200), antibody captured on Protein A chip, FcγR ECD as analyte; average of 3, SD 1.3.
Assay [6] addresses human FcγRIIA_131H (CD32a) extracellular domain (human) (UniProt P12318). The experiment in a line: SPR at 25 C (Biacore T200), antibody captured on Protein A chip, FcγR ECD as analyte, steady state; average of 3, SD 0.01.
The target in assay [7] is human FcγRIIA_131R (CD32a) extracellular domain (human) (UniProt P12318). The assay is described as above.
Assay [8] concerns the target human FcγRIIIA_158F (CD16a) extracellular domain (human) (UniProt P08637). The experiment in a line: SPR at 25 C (Biacore T200), antibody captured on Protein A chip, FcγR ECD as analyte, steady state; average of 3, SD 0.02.
The target in assay [9] is human LEPR, full length, on HEK293-STAT3Luc-hLepR1 cells (Homo sapiens) (UniProt P48357). Put plainly: flow cytometry on live HEK293-STAT3Luc-hLepR1 cells, AF647 anti-human IgG; average of 4 runs. For orientation: In flow cytometry, cells or beads pass a laser one at a time.
Assay [10] has as its target cynomolgus monkey LEPR, full length, on HEK293-STAT3Luc-cmLepR2 cells (Macaca fascicularis). Put plainly: flow cytometry on live HEK293-STAT3Luc-cmLepR2 cells, AF647 anti-human IgG; average of 4 runs.
Assay [11] shares this target. The experiment in a line: flow cytometry on live HEK293-STAT3Luc-cmLepR2 cells, AF647 anti-human IgG; average of 4 runs, SD 0, R^2 0.60.
Assay [12] concerns the target human LEPR, full length, on HEK293-STAT3Luc-hLepR1 cells (Homo sapiens) (UniProt P48357). The experiment in a line: flow cytometry on live HEK293-STAT3Luc-hLepR1 cells, AF647 anti-human IgG; average of 4 runs, SD 331, R^2 0.50.

pEC50, pKd: −log10 of the molar value.

Sequence of human LEPR, full length, on HEK293-STAT3Luc-hLepR1 cells (Homo sapiens) (P48357 22-1165 limits assumed): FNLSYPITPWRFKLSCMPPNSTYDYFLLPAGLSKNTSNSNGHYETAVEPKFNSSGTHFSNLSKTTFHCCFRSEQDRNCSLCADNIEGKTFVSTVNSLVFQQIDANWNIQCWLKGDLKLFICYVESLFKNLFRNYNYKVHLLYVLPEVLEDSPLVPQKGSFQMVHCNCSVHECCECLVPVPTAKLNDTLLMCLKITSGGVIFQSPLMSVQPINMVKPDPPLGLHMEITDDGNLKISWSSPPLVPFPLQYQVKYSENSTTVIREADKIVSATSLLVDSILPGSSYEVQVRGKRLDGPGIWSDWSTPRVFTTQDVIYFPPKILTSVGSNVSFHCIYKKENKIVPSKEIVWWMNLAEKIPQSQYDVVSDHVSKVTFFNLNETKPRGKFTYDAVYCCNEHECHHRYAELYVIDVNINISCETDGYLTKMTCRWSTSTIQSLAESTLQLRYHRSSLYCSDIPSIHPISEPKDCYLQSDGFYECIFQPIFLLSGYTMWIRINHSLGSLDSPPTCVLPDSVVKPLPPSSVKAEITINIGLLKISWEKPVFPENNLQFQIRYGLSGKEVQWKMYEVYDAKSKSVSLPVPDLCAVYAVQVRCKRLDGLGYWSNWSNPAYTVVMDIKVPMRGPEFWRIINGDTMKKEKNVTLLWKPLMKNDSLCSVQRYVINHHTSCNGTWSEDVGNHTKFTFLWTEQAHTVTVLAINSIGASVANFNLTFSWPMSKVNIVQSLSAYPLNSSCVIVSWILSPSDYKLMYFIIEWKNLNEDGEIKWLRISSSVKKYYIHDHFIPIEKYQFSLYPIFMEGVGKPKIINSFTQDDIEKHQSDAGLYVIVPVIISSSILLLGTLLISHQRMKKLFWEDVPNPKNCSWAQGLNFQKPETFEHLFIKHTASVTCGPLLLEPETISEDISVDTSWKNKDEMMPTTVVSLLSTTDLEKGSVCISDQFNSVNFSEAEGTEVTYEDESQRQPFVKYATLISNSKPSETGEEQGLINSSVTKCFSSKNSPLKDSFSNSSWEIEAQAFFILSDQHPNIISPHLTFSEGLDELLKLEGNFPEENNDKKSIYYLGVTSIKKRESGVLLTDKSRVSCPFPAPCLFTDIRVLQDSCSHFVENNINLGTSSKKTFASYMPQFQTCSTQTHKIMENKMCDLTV
Sequence of neonatal Fc receptor (FcRn) on FcRn Affinity Column Gen2 (Roche, Cat #09430857001) (P55899 24-297 limits assumed, chain 1 of 2): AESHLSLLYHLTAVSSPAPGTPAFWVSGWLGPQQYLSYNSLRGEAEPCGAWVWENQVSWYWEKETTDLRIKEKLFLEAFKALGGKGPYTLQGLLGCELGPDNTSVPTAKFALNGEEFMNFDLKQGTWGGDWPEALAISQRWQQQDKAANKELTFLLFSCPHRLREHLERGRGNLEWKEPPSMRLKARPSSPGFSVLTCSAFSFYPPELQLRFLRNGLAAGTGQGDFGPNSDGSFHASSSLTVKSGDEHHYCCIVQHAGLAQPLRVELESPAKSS
Sequence of neonatal Fc receptor (FcRn) on FcRn Affinity Column Gen2 (Roche, Cat #09430857001) (P61769 21-119 limits assumed, chain 2 of 2, further chain): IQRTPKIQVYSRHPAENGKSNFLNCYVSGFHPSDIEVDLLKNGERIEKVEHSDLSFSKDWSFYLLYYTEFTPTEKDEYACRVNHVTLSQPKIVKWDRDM
Sequence of human FcγRIIA_131R (CD32a) extracellular domain (human) (P12318 34-217 H167R): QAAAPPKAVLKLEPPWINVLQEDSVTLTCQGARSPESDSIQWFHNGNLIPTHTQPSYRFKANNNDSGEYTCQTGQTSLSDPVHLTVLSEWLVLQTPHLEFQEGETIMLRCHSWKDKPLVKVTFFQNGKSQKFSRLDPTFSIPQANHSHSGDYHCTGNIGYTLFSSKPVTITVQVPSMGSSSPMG
Sequence of human FcγRIIIA_158F (CD16a) extracellular domain (human) (P08637 17-208): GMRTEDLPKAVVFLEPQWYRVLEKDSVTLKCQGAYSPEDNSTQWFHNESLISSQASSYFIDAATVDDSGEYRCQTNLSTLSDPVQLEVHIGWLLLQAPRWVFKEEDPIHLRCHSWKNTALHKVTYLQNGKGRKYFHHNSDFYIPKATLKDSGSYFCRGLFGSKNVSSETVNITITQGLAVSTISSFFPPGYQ
Sequence of human FcγRI (CD64) extracellular domain (human) (P12314 16-292): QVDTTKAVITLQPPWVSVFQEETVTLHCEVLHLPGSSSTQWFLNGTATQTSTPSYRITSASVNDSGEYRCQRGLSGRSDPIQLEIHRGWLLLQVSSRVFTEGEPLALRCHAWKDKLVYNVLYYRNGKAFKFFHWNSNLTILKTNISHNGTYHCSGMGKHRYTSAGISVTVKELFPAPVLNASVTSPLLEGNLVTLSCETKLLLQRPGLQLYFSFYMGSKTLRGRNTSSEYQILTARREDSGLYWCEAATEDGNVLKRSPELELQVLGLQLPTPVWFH
Sequence of Mutant human LEPR-A409E, on HEK293 STAT3-Luciferase reporter cells (human) (P48357 22-1165 A409E limits assumed): as the sequence (P48357 22-1165 limits assumed) above, with A388E counted along it
Sequence of human FcγRIIA_131H (CD32a) extracellular domain (human) (P12318 34-217): as the sequence (P12318 34-217 H167R) above, with R134H counted along it

On to Ustekinumab (antibody), for which the Peak Width in [1] turned out to be 1.9 min. The same substance displayed a Retention Time in assay [2] of 69.4 min.

For the substance “recombinant human leptin protein (SEQ ID NO:27) (from UniProt P41159 22-167) (ligand)”, in assay [3], the Top (RLU), STAT3-luciferase reporter (projected by the fitting software) came out at 259000 RLU. The substance also came in with a Maximum RLU, pERK1/2 AlphaLISA (baseline 29762.5) in assay [4] of 138000 RLU.

In turn, Briakinumab (antibody) gave a Retention Time in [2] of 88.9 min.

Usually pKd stands for the negative decadic logarithm of the Kd, by convention in mol/L. Take IgG1 positive control (antibody): the pKd in assay [5] is 10.21; in assay [6], 6.28; in assay [7], 6.28; in assay [8], 6.07.

What is called pEC50 is the EC50 on a negative log10 scale, so that one unit is a factor of ten. In [4], IgG Isotype control (antibody) showed a Maximum RLU, pERK1/2 AlphaLISA (baseline 29762.5) of 27300 RLU. Further, the figures for the Bottom (gMFI) in assay [9] and in assay [10] were 148 gMFI and 69 gMFI, respectively. Further, the Top (gMFI) in assay [9] turned out to be 293 gMFI; in assay [10], 131 gMFI. Moreover, the pEC50 in [11] is 6.14; in assay [12], 6.39.

(Values after patent publication US20250289897A1, “LEPTIN RECEPTOR AGONISTIC ANTIBODY AS MONO OR COMBO THERAPIES TO TREAT OBESITY” (ELI LILLY AND COMPANY, priority 2024, published 2025).)
